# Target: the molecule itself
# Assay: SEC-MALS
row,Protein,stoichiometry N
1,"KAP1 full length protein (KAP1 FL, 1-835) (natural protein) MAASAAAASAAAASAASGSPGPGEGSAGGEKRSTAPSAAASASASAAASSPAGGGAEALELLEHCGVCRERLRPEREPRLLPCLHSACSACLGPAAPAAANSSGDGGAAGDGTVVDCPVCKQQCFSKDIVENYFMRDSGSKAATDAQDANQCCTSCEDNAPATSYCVECSEPLCETCVEAHQRVKYTKDHTVRSTGPAKSRDGERTVYCNVHKHEPLVLFCESCDTLTCRDCQLNAHKDHQYQFLEDAVRNQRKLLASLVKRLGDKHATLQKSTKEVRSSIRQVSDVQKRVQVDVKMAILQIMKELNKRGRVLVNDAQKVTEGQQERLERQHWTMTKIQKHQEHILRFASWALESDNNTALLLSKKLIYFQLHRALKMIVDPVEPHGEMKFQWDLNAWTKSAEAFGKIVAERPGTNSTGPAPMAPPRAPGPLSKQGSGSSQPMEVQEGYGFGSGDDPYSSAEPHVSGVKRSRSGEGEVSGLMRKVPRVSLERLDLDLTADSQPPVFKVFPGSTTEDYNLIVIERGAAAAATGQPGTAPAGTPGAPPLAGMAIVKEEETEAAIGAPPTATEGPETKPVLMALAEGPGAEGPRLASPSGSTSSGLEVVAPEGTSAPGGGPGTLDDSATICRVCQKPGDLVMCNQCEFCFHLDCHLPALQDVPGEEWSCSLCHVLPDLKEEDGSLSLDGADSTGVVAKLSPANQRKCERVLLALFCHEPCRPLHQLATDSTFSLDQPGGTLDLTLIRARLQEKLSPPYSSPQEFAQDVGRMFKQFNKLTEDKADVQSIIGLQRFFETRMNEAFGDTKFSAVLVEPPPMSLPGAGLSSQELSGGPGDGP",2
2,ΔKAP1 (23-812) (domain or fragment) GEGSAGGEKRSTAPSAAASASASAAASSPAGGGAEALELLEHCGVCRERLRPEREPRLLPCLHSACSACLGPAAPAAANSSGDGGAAGDGTVVDCPVCKQQCFSKDIVENYFMRDSGSKAATDAQDANQCCTSCEDNAPATSYCVECSEPLCETCVEAHQRVKYTKDHTVRSTGPAKSRDGERTVYCNVHKHEPLVLFCESCDTLTCRDCQLNAHKDHQYQFLEDAVRNQRKLLASLVKRLGDKHATLQKSTKEVRSSIRQVSDVQKRVQVDVKMAILQIMKELNKRGRVLVNDAQKVTEGQQERLERQHWTMTKIQKHQEHILRFASWALESDNNTALLLSKKLIYFQLHRALKMIVDPVEPHGEMKFQWDLNAWTKSAEAFGKIVAERPGTNSTGPAPMAPPRAPGPLSKQGSGSSQPMEVQEGYGFGSGDDPYSSAEPHVSGVKRSRSGEGEVSGLMRKVPRVSLERLDLDLTADSQPPVFKVFPGSTTEDYNLIVIERGAAAAATGQPGTAPAGTPGAPPLAGMAIVKEEETEAAIGAPPTATEGPETKPVLMALAEGPGAEGPRLASPSGSTSSGLEVVAPEGTSAPGGGPGTLDDSATICRVCQKPGDLVMCNQCEFCFHLDCHLPALQDVPGEEWSCSLCHVLPDLKEEDGSLSLDGADSTGVVAKLSPANQRKCERVLLALFCHEPCRPLHQLATDSTFSLDQPGGTLDLTLIRARLQEKLSPPYSSPQEFAQDVGRMFKQFNKLTEDKADVQSIIGLQRFFETRMNEAFGDTKFSAVLVEP,2
3,"KAP1 RBCC domain (RBCC, 23-418) (domain or fragment) GEGSAGGEKRSTAPSAAASASASAAASSPAGGGAEALELLEHCGVCRERLRPEREPRLLPCLHSACSACLGPAAPAAANSSGDGGAAGDGTVVDCPVCKQQCFSKDIVENYFMRDSGSKAATDAQDANQCCTSCEDNAPATSYCVECSEPLCETCVEAHQRVKYTKDHTVRSTGPAKSRDGERTVYCNVHKHEPLVLFCESCDTLTCRDCQLNAHKDHQYQFLEDAVRNQRKLLASLVKRLGDKHATLQKSTKEVRSSIRQVSDVQKRVQVDVKMAILQIMKELNKRGRVLVNDAQKVTEGQQERLERQHWTMTKIQKHQEHILRFASWALESDNNTALLLSKKLIYFQLHRALKMIVDPVEPHGEMKFQWDLNAWTKSAEAFGKIVAERPGTNST",2

# From publication doi:10.1101/553511 (bioRxiv, 2019)
